Average neutralization titers data for one substance are collected here from patent publication US20190359693A1.

The assay has as its target hemagglutinin (HA) of influenza A/Env/MPJ193/09 (H3N?) (influenza A virus). Nature of the assay: cell-based or functional assay.

In turn, MD3606 (Fc fusion) gave an Average neutralization titers of 11.8 nM.
